In series [1] the test system is Group II Intron-RT (unspecified). Conditions: 1 h at 55 C, Induro buffer, 1 ug circRNA, 100 ng RT.
Series [2] relates to Induro RT (Group II Intron-RT). Conditions: 5'-phosphate primer; 50 C 30 min, 10 mM DTT; peak cDNA 7.2 kb.
The test system of series [3] is Induro RT (Group II Intron-RT). Conditions: [none]; 38 C 5 min then 60 C 30 min.

3 sequences from patent US20230141630 can be followed below.

Read-outs that look alike come from different tables or passages of the source.

“AAAATCCGTTGACCTTAAACGGTCGTGTGGGTTCAAGTCCCTCCACCCCCACGCCGGAAACGCAATAGCCGAAAAACAAAAAACAAAAAAACCCCCCTCTCCCTCCCCCCCTAACGTTACTGGCCGAAGCCGCTTGGAATAAGGCCGGTGTGCGTTTGTCTATATGTTATTTTCCACCATATTGCCGTCTTTTGGCAATGTGAGGGCCCGGAAACCTGGCCCTGTCTTCTTGACGAGCATTCCTAGGGGTCTTTCCCCTCTCGCCAAAGGAATGCAAGGTCTGTTGAATGTCGTAAAAAAACAAAAAACAAAACGGCTATTATGCGTTACCGGCGAGACGCTACGGACTT / TCCAGAGGAACTGCTTCCTTC [circRNA 0.4 kb with DNA primer]” yielded an activity in series [1] of 4.5 µg cDNA.
Take “GGATTCTAAAACGGATTACCAGGGATTTCAGTCGATGTACACGTTCGTCACATCTCATCTACCTCCCGGTTTTAATGAATACGATTTTGTACCAGAGTCCTTTGATCGTGACAAAACAATTGCACTGATAATGAATTCCTCTGGATCTACTGGGTTACCTAAGGGTGTGGCCCTTCCGCATAGAACTGCCTGCGTCAGATTCTCGCATGCCAGAGATCCTATTTTTGGCAATCAAATCATTCCGGATACTGCGATTTTAAGTGTTGTTCCATTCCATCACGGTTTTGGAATGTTTACTACACTCGGATATTTGATATGTGGATTTCGAGTCGTCTTAATGTATAGATTTGAAGAAGAGCTGTTTTTACGATCCCTTCAGGATTACAAAATTCAAAGTGCGTTGCTAGTACCAACCCTATTTTCATTCTTCGCCAAAAGCACTCTGATTGACAAATACGATTTATCTAATTTACACGAAATTGCTTCTGGGGGCGCACCTCTTTCGAAAGAAGTCGGGGAAGCGGTTGCAAAACGCTTCCATCTTCCAGGGATACGACAAGGATATGGGCTCACTGAGACTACATCAGCTATTCTGATTACACCCGAGGGGGATGATAAACCGGGCGCGGTCGGTAAAGTTGTTCCATTTTTTGAAGCGAAGGTTGTGGATCTGGATACCGGGAAAACGCTGGGCGTTAATCAGAGAGGCGAATTATGTGTCAGAGGACCTATGATTATGTCCGGTTATGTAAACAATCCGGAAGCGACCAACGCCTTGATTGACAAGGATGGATGGCTACATTCTGGAGACATAGCTTACTGGGACGAAGACGAACACTTCTTCATAGTTGACCGCTTGAAGTCTTTAATTAAATACAAAGGATATCAGGTGGCCCCCGCTGAATTGGAATCGATATTGTTACAACACCCCAACATCTTCGACGCGGGCGTGGCAGGTCTTCCCGACGATGACGCCGGTGAACTTCCCGCCGCCGTTGTTGTTTTGGAGCACGGAAAGACGATGACGGAAAAAGAGATCGTGGATTACGTCGCCAGTCAAGTAACAACCGCGAAAAAGTTGCGCGGAGGAGTTGTGTTTGTGGACGAAGTACCGAAAGGTCTTACCGGAAAACTCGACGCAAGAAAAATCAGAGAGATCCTCATAAAGGCCAAGAAGGGCGGAAAGTCCAAACTCGAGTAAGGTTAACCTGCAGGGAAAAAACAAAAAACAAAACGGCTATTATGCGTTACCGGCGAGACGCTACGGACTT / ACTTGCCTGTCGCTCTATCTTCTTTGTTTTTTCCCTGCAGGTTAACCTTACTC [circRNA 1.8 kb with RT primer]”: the activity (copies per cDNA) in series [2] worked out at 4.
“UGAGGUAGUAGGUUGUAUAGUUUACUGACCAGGACGACGACA / TGTCGTCGTCCTGGTCAGTA [42 nt circularized small RNA with RT primer]” came in with an activity (copies per cDNA) in series [3] of over 100.
